Measured values: PMC4960888 (2016)
Ends that are not written are not given here.

B1: AGuIX@PEG@LPFFD@Cy5.5 (peptide)
chain: LPFFD
modifications: also: conjugated to AGuIX nanoparticle via PEG, labelled with Cy5.5, attachment sites not given here

Target: Aβ(1-42) fibrils 1-42 (Homo sapiens, UniProt P05067)
Assay: SPR

Aβ(1-42) fibrils 1-42, sequence (P05067 1-42): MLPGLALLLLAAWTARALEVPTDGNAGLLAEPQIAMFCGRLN

Binder | Kd [µM]
B1 | 261
LPFFD [LPFFD peptide] | 317
